Data: US20130183315A1 (GLENMARK PHARMACEUTICALS S A, published 2013)

Key:
[1] = molecular target: T1, recombinant human OX40-Fc protein (human, UniProt P43489 29-214); test: blocking ELISA on coated human OX40-Fc; blocked ligand: biotinylated recombinant human OX40L, streptavidin-HRP detection
T1 construct: also called human TNFRSF4 extracellular domain-Fc fusion protein; HHHH; not shown: Fc region of a human IgG1, EU positions 223-451 as printed
Protocol: In order to determine if the generated anti-OX40 antibodies can block the binding of OX40L to the OX40 receptor, a blocking ELISA was developed. Ninety-six well-microtiter plates (Costar, USA; distributor VWR AG, Nyon, Switzerland) were coated with 100 μl of recombinant human OX40-Fc (see Example 1) at 2 μg/ml in PBS. Plates were incubated overnight at 4° C. and were then blocked with PBS 2% BSA at RT for one hour. The blocking solution was removed and the hybridoma supernatants or purified antibodies were added to the plate. Five minutes later, 50 μl of biotinylated-recombinant human OX40L at 0.04 mg/ml was added to each well. Plates were incubated at RT for 60 minutes, then washed nine times with PBS 0.01% Tween-20 and HRP-streptavidin (Sigma-Aldrich Chemie GmbH, Buchs, Switzerland) was added at a dilution of 1:2000. Plates were incubated for 30 minutes at RT, washed 9 times with PBS 0.01% Tween-20 and the TMB substrate (Bio-rad Laboratories AG, Reinach, Switzerland) was added to the plates and the reaction stopped after 6 minutes by adding H₂SO₄. Absorbance was then read at 450 nm by a microplate reader (Biotek, USA; distributor: WITTEC AG, Littau, Switzerland).

[2] = molecular target: T2, recombinant human OX40-his protein (human, UniProt P43489 29-214); test: SPR, antibody captured on protein A, OX40-his as analyte
T2 construct: Secretion driven by the native signal peptide of human TNFRSF4; also called recombinant histidine tagged human OX40 receptor extracellular domain; recombinant monovalent human OX40 receptor extracellular domain
T2 sequence: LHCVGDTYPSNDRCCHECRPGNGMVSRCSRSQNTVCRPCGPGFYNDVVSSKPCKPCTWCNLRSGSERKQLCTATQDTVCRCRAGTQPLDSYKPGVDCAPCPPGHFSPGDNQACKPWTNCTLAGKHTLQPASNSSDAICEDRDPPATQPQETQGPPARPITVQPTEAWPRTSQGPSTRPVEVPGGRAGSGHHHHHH
Protocol: (§1) Kinetic binding affinity constants (KD) were measured on protein-A captured antibody using recombinant histidine tagged human OX40 receptor extracellular domain as described in Example 1 as analyte. Measurements were conducted on a BIAcore 2000 (GE Healthcare—BIAcore, Uppsala, Sweden) at room temperature, and analyzed with the BiaEvaluation software (BIAcore; v4.1).
A CMS research grade sensor chip (GE Healthcare Europe GmbH, Glattbrugg, Switzerland; BR-1000-14) was activated by injecting 35 μl of a 1:1 N-hydroxysulfosuccinimide (NHS)/1-Ethyl-3-[3-dimethylaminopropyl]carbodiimide Hydrochloride (EDC) solution (v/v; 5 μl/min flow-rate; on flow paths 1 and 2). Protein-A (ref. P7837; Sigma-Aldrich Chemie GmbH, Buchs, Switzerland) was diluted to a final concentration of 50 μg/ml in acetate buffer pH 4.5 (GE, BR-1003-50; one pH unit below pI) and subsequently immobilized on the previously activated CMS sensor chip by injecting 35 μl on both flow path 1 and 2 (5 μl/min); this corresponded to approximately 1500 response units (RUs). The protein-A-CMS sensor chip was then deactivated by injecting 35 μl of ethanolamine solution (5 μl/min). Finally, two injections of 10 μl of glycine solution (GE, ref BR-1003-54; 10 mM; pH 1.5) were performed to release non-crosslinked protein-A molecules.
(§2) 10 μl of this diluted stock were subsequently injected on the flow-path 2 of the protein-A CMS chip (30 μl/min) to reach 200-250 RUs. Following this capture step, the recombinant histidine tagged human OX40 receptor extracellular domain was injected at different concentrations (50 nM to 0.4 μM) on the flow-path 1 and 2 (flow-path 1 being used as reference) at a 30 μl/min flow rate. After each binding event, surface was regenerated with glycine buffer pH 1.5 injected for 1 min (10 μl/min)

[3] = molecular target: T2, recombinant human OX40-his protein; test: SPR, antibody captured on protein A, OX40-his as analyte, duplicates; lower of the two duplicate measurements
Protocol: as §1, §2
Measurements were performed in duplicates with the captured chimeric 1D4 anti-human OX40 antibody immobilized onto the protein-A sensor chip and the recombinant histidine tagged human OX40 receptor extracellular domain as analyte.

- IC50 (read off the curve) [1]: ~0.3 µg/mL
- Kd [2]: 91 nM
- koff [2]: 0.00308 s⁻¹
- kon [2]: 34000 M⁻¹ s⁻¹
- Kd [3]: 91 to 116 nM
B1: chimeric 1D4 antibody (antibody, human IgG1, kappa, V domains shown)
VH: QVTLKESGPGILQPSQTLSLTCSFSGFSLSTSGMGVGWIRQPSGKGLEWLAHIWWDDDKYYNTALKSGLTISKDTSKNQVFLKIASVDTTDTATYYCARIDWDGFAYWGQGTLVTVSS
VL: QIVLTQSPAILSASPGEKVTMTCRASSSVSYMHWYQQKPGSSPKPWIYATSNLASGVPARFSGSGSGTSYSLTINRVEAEDAATYYCQQWSSNPWTFGGGTKLEIKR
notes: Biotinylated for the staining of cynomolgus cells; also called 1D4 chimera; 1D4 chimeric antibody
